In patent US20130072665A1 (Amgen, published 2013):

How the values were obtained:
[1] = target: T1, mouse PCSK9 (mouse, UniProt Q80W65 35-694, limits assumed); assay: BIAcore, antibody immobilised, pH 7.4
T1 construct: biotinylated, tag not mentioned, in the hybridoma screen; also called mPCSK9-8xHIS; mPCSK9
Experimental: Briefly, the surface plasmon resonance experiments were performed using Biacore 2000 optical biosensors (Biacore, GE Healthcare, Piscataway, N.J.). […] The concentration of PCSK9 protein was varied at 2 fold intervals (the analyte) and was injected over the immobilized antibody surface (at a flow rate of 100 μl/min for 1.5 minutes).
Antibody binding kinetic parameters including kₐ (association rate constant), kd (dissociation rate constant), and KD (dissociation equilibrium constant) were determined using the BIA evaluation 3.1 computer program (BIAcore, Inc. Piscataway, N.J.).

[2] = target: T1, mouse PCSK9; assay: BIAcore solution equilibrium
[3] = target: T1, mouse PCSK9; assay: KinExA solution equilibrium
Text: Equilibrium dissociation constant (KD) were obtained from nonlinear regression of the two sets of competition curves using a one-site homogeneous binding model. The KinExA® Pro software was employed in the analysis.

B1: 21B12, anti-PCSK9 huIgG4 (antibody, V domains shown)
VH: QVQLVQSGAEVKKPGASVKVSCKASGYTLTSYGISWVRQAPGQGLEWMGWVSFYNGNTNYAQKLQGRGTMTTDPSTSTAYMELRSLRSDDTAVYYCARGYGMDVWGQGTTVTVSS
VL: QSALTQPASVSGSPGQSITISCTGTSSDVGGYNSVSWYQQHPGKAPKLMIYEVSNRPSGVSNRFSGSKSGNTASLTISGLQAEDEADYYCNSYTSTSMVFGGGTKLTVLQ
notes: from hybridoma; also called 21B12 IgG4; 21B12.1
**Q.** Which results are given for B1?
**A.** Kd [1]: 460 nM; Kd [2]: 17 nM

B2: 16F12, anti-PCSK9 huIgG4 (antibody, V domains shown)
VH: QVHLVESGGGVVQPGRSLRLSCAASGFTFNSFGMHWVRQAPGKGLEWVALIWSDGSDEYYADSVKGRFTISRDNSKNTLYLQMNSLRAEDTAVYYCARAIAALYYYYGMDVWGQGTTVTVSS
VL: QSVLTQPPSVSAAPGQKVTISCSGSSSNIGNNFVSWYQQLPGTAPKLLIYDYNKRPSGIPDRFSGSKSGTSATLGITGLQTGDEADYYCGTWDSSLSAYVFGTGTRVTVLQ
notes: from hybridoma; also called 16F12 IgG4; 16F12.1
**Q.** For B2, which Kd [1] is on record?
**A.** Its Kd is 6.4 nM.

**Q.** What about the Kd [3] of the same binder?
**A.** Its Kd is 0.223 nM.
